The values below come from paper PMC4072508, “Genome-Wide Prediction and Validation of Peptides That Bind Human Prosurvival Bcl-2 Proteins” (PLoS Computational Biology, 2014).

For assay [1], the target named is Bcl-2, P10415. The assay is described as follows: peptide SPOT array, c-Myc-tagged receptor at 1 uM or 100 nM, anti-c-Myc-Cy3.
Target sequence in this assay (P10415 1-217): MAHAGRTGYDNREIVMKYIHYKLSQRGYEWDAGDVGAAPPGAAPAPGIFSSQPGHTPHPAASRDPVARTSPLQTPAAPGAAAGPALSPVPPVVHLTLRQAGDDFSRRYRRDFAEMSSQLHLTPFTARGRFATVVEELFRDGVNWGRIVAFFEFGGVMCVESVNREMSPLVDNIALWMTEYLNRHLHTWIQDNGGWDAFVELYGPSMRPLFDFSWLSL
In assay [2] the target is T1, Mcl-1, Q07820.
T1 chain: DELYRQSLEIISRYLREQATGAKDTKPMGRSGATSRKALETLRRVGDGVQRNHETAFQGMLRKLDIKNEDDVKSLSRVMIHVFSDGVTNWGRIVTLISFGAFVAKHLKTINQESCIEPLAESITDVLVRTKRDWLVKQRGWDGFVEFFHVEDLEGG
The description is as above.

In assay [3] the target is Bcl-xL, Q07817. The assay is described as above.
Assay [4] concerns the target T2, Bcl-w, Q92843.
T2 chain: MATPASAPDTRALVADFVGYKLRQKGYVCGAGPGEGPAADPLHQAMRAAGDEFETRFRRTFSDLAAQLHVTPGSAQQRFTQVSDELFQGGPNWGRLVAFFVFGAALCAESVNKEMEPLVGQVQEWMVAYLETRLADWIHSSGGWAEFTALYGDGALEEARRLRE
Described as above.

For assay [5], the target named is T3, Bfl-1, Q16548.
T3 chain: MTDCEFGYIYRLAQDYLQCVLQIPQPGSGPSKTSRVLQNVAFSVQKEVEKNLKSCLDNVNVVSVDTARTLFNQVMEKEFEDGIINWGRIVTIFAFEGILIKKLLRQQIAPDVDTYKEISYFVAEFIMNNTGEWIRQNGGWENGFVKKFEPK
Described as above.

Assay [6] deals with T1, Mcl-1, Q07820. The assay is described as follows: fluorescence polarisation, direct titration of receptor into 10 nM labelled peptide. In general terms: In fluorescence polarisation assays a small probe gives low polarisation when free and higher when bound to something large.
Assay [7] deals with Bcl-xL, Q07817. The assay is described as above.
Assay [8] concerns the target T2, Bcl-w, Q92843. The description is as above.
Assay [9] has as its target T4, Bcl-2, P10415.
T4 chain: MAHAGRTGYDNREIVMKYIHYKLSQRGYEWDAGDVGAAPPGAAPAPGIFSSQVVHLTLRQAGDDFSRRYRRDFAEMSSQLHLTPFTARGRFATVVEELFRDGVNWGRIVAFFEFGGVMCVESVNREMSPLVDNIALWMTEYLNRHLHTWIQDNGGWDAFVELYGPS
The assay is described as above.

Assay [10] addresses T3, Bfl-1, Q16548. Described as above.
Assay [11] addresses PXT1 BH3-like peptide (human). The assay can be described thus: fluorescence polarisation; direct binding: 10 nM FAM-labeled peptide, receptor serially diluted; 25°C; 20 mM NaPO4, 50 mM NaCl, 1 mM EDTA, 0.001% Triton X, pH 7.8; single-site binding model.

Bcl-xL, Q07817, sequence (Q07817 1-209): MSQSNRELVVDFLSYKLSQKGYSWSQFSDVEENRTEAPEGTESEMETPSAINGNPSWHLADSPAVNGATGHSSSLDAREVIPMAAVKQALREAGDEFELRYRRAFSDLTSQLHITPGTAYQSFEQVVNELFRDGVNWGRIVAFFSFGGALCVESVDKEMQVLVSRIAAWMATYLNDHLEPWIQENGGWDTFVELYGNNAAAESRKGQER

B1: ARHGAP4 (peptide)
chain: EVLAGPLAQRLSHIAEDVGRLVKKSR
For the molecule B1, the SPOT signal as a fraction of Bim BH3's signal on the same receptor and array turned out to be 0.1 with Bcl-2, P10415 [1]; 0.28 with Mcl-1, Q07820 [2]; 0.4 with Bcl-xL, Q07817 [3]; 0.94 with Bcl-w, Q92843 [4]; 0.4 with Bfl-1, Q16548 [5]. Besides, the Kd was above 2430 nM with Mcl-1, Q07820 [6]; 3060 nM in the assay with Bcl-xL, Q07817 [7]; 749 nM with Bcl-w, Q92843 [8]; 6090 nM with Bcl-2, P10415 [9]; above 5600 nM in the assay with Bfl-1, Q16548 [10].

B2: Bcl-w (natural protein)
chain: MATPASAPDTRALVADFVGYKLRQKGYVCGAGPGEGPAADPLHQAMRAAGDEFETRFRRTFSDLAAQLHVTPGSAQQRFTQVSDELFQGGPNWGRLVAFFVFGAALCAESVNKEMEPLVGQVQEWMVAYLETQLADWIHSSGGWAEFTALYGDGALEEARRLREGNWASVRTVLTGAVALGALVTVGAFFASK
Turning to B2, in assay [11], the Kd was below 30 nM.

B3: NPLOC4 (peptide)
chain: ATKRETAATFLKKVAKEFGFQNNGFS
Regarding B3, the SPOT signal as a fraction of Bim BH3's signal on the same receptor and array with Bcl-2, P10415 [1] came to 0.25; with Mcl-1, Q07820 [2], 0.23; with Bcl-xL, Q07817 [3], 0.73; with Bcl-w, Q92843 [4], 0.77; in the assay with Bfl-1, Q16548 [5], 0.41. Moreover, the Kd in the assay with Mcl-1, Q07820 [6] was above 4000 nM; in the assay with Bcl-xL, Q07817 [7], above 100000 nM; in the assay with Bcl-w, Q92843 [8], above 4500 nM; with Bcl-2, P10415 [9] it was 2060 nM; with Bfl-1, Q16548 [10] it was above 4660 nM.

B4: PXT1 (peptide)
chain: EEIIHKLAMQLRHIGDNIDHRMVRED
Take B4: the SPOT signal as a fraction of Bim BH3's signal on the same receptor and array in the assay with Bcl-2, P10415 [1] was found to be 0.13; with Mcl-1, Q07820 [2] it was 0.9; with Bcl-xL, Q07817 [3] it was 0.26; with Bcl-w, Q92843 [4], 0.99; with Bfl-1, Q16548 [5], 0.99. Further, the Kd with Mcl-1, Q07820 [6] is 0.9 nM; in the assay with Bcl-xL, Q07817 [7], 8 nM; in the assay with Bcl-w, Q92843 [8] it was 5 nM; with Bcl-2, P10415 [9], 14 nM; in the assay with Bfl-1, Q16548 [10], 1 nM.

B5: SNTG2 (peptide)
chain: NATHEEVVHLLRNAGDEVTITVEYLR
As for B5, the SPOT signal as a fraction of Bim BH3's signal on the same receptor and array with Bcl-2, P10415 [1] was found to be 0.01; with Mcl-1, Q07820 [2], 0.09; in the assay with Bcl-xL, Q07817 [3] it was 0.04; with Bcl-w, Q92843 [4], 0.02; with Bfl-1, Q16548 [5] it was 0.01. The Kd with Mcl-1, Q07820 [6] was 22 nM; with Bcl-xL, Q07817 [7], above 4000 nM; with Bcl-w, Q92843 [8], above 6560 nM; in the assay with Bcl-2, P10415 [9], above 3040 nM; with Bfl-1, Q16548 [10] it was above 4070 nM.

B6: TUBB4Q (peptide)
chain: FTGNNTAVQELKRVSEQFTATFRRKA
For B6, the SPOT signal as a fraction of Bim BH3's signal on the same receptor and array with Bcl-2, P10415 [1] came to 0.19; with Mcl-1, Q07820 [2], 0.41; with Bcl-xL, Q07817 [3], 0.93; in the assay with Bcl-w, Q92843 [4], 0.92; with Bfl-1, Q16548 [5] it was 0.8. In addition, the dissociation constant (Kd) is 1460 nM in the assay with Mcl-1, Q07820 [6]; 2050 nM with Bcl-xL, Q07817 [7]; 2490 nM with Bcl-w, Q92843 [8]; 1410 nM with Bcl-2, P10415 [9]; above 4660 nM in the assay with Bfl-1, Q16548 [10].

B7: CCNH (peptide)
chain: RYPILENPEILRKTADDFLNRIALTD
B7: the SPOT signal as a fraction of Bim BH3's signal on the same receptor and array stood at 0.04 with Bcl-2, P10415 [1]; 0.02 with Mcl-1, Q07820 [2]; 0.06 with Bcl-xL, Q07817 [3]; 0.24 with Bcl-w, Q92843 [4]; 0.02 in the assay with Bfl-1, Q16548 [5]. Further, the Kd was above 4000 nM with Mcl-1, Q07820 [6]; above 5720 nM in the assay with Bcl-xL, Q07817 [7]; 1920 nM in the assay with Bcl-w, Q92843 [8]; 7130 nM with Bcl-2, P10415 [9]; above 9620 nM with Bfl-1, Q16548 [10].

B8: TRPM7 (peptide)
chain: FERVEQMCIQIKEVGDRVNYIKRSLQ
Regarding B8, the SPOT signal as a fraction of Bim BH3's signal on the same receptor and array in the assay with Bcl-2, P10415 [1] was determined as 0.38; with Mcl-1, Q07820 [2], 0.44; in the assay with Bcl-xL, Q07817 [3], 0.34; with Bcl-w, Q92843 [4], 0.2; with Bfl-1, Q16548 [5], 0.49. Also, the Kd with Mcl-1, Q07820 [6] was 592 nM; in the assay with Bcl-xL, Q07817 [7], 679 nM; with Bcl-w, Q92843 [8] it was 2490 nM; in the assay with Bcl-2, P10415 [9], 124 nM; in the assay with Bfl-1, Q16548 [10], 1900 nM.

B9: TRIM58 (peptide)
chain: KSRLVQQSKALKELADELQERCQRPA
Take B9: the SPOT signal as a fraction of Bim BH3's signal on the same receptor and array stood at 0.06 with Bcl-2, P10415 [1]; 0.05 in the assay with Mcl-1, Q07820 [2]; 0.29 with Bcl-xL, Q07817 [3]; 0.29 with Bcl-w, Q92843 [4]; 0.11 in the assay with Bfl-1, Q16548 [5]. The Kd in the assay with Mcl-1, Q07820 [6] was above 6070 nM; with Bcl-xL, Q07817 [7], 4550 nM; with Bcl-w, Q92843 [8] it was 361 nM; with Bcl-2, P10415 [9], 975 nM; in the assay with Bfl-1, Q16548 [10], above 4660 nM.

B10: PLEKHH1 (peptide)
chain: RYRHGAPAEQLRHLADMLTTKWATLQ
On to B10, for which the SPOT signal as a fraction of Bim BH3's signal on the same receptor and array with Bcl-2, P10415 [1] was 0.28; with Mcl-1, Q07820 [2], 0.41; with Bcl-xL, Q07817 [3] it was 1.44; with Bcl-w, Q92843 [4], 0.81; with Bfl-1, Q16548 [5], 0.56. In addition, the equilibrium dissociation constant (Kd) in the assay with Mcl-1, Q07820 [6] was 977 nM; with Bcl-xL, Q07817 [7], 650 nM; with Bcl-w, Q92843 [8] it was 1400 nM; with Bcl-2, P10415 [9] it was 1500 nM; with Bfl-1, Q16548 [10], above 5680 nM.

B11: NUB1 (peptide)
chain: TDENKKVGLALKDLAKQYSDRLECCE
Consider B11, for which the SPOT signal as a fraction of Bim BH3's signal on the same receptor and array with Bcl-2, P10415 [1] came to 0.01; in the assay with Mcl-1, Q07820 [2], 0.02; with Bcl-xL, Q07817 [3] it was 0.11; with Bcl-w, Q92843 [4], 0.02; with Bfl-1, Q16548 [5], 0.02. The Kd in the assay with Mcl-1, Q07820 [6] was above 10000 nM; in the assay with Bcl-xL, Q07817 [7], 2720 nM; with Bcl-w, Q92843 [8] it was above 4000 nM; with Bcl-2, P10415 [9], 562 nM; with Bfl-1, Q16548 [10] it was above 4000 nM.

B12: AGBL2 (peptide)
chain: SSLSDGLPVHLANIADELTQKKKMFK
As for B12, the SPOT signal as a fraction of Bim BH3's signal on the same receptor and array with Bcl-2, P10415 [1] was determined as 0.105; in the assay with Mcl-1, Q07820 [2], 0.11; in the assay with Bcl-xL, Q07817 [3] it was 0.25; in the assay with Bcl-w, Q92843 [4], 0.74; in the assay with Bfl-1, Q16548 [5] it was 0.15. The Kd with Mcl-1, Q07820 [6] is above 5020 nM; with Bcl-xL, Q07817 [7] it was above 4000 nM; in the assay with Bcl-w, Q92843 [8], 5870 nM; in the assay with Bcl-2, P10415 [9], above 100000 nM; with Bfl-1, Q16548 [10], above 4660 nM.

As usually defined, the Kd is the free concentration of one partner at which half of the binding sites on the other are occupied at equilibrium, for simple one-to-one binding. Read a low Kd as tighter binding.
